The text below walks through data of publication doi:10.1101/2023.08.14.552755.

Experiment [1] deals with VpOmpM1 (OmpM1 from Veillonella parvula), full length, expressed in E. coli (Veillonella parvula). The experiment in a line: cryo-EM structure.
Experiment [2] has as its target VpOmpM1 stalk region (residues 22-107), soluble construct (Veillonella parvula). The experiment in a line: crystal structure.

One may read the stoichiometry N as the number of molecules, sites or subunits per partner or assembly. For the substance “VpOmpM1 (OmpM1 from Veillonella parvula), full length, expressed in E. coli (natural protein)”, the stoichiometry N in experiment [1] was 3.

Substance “VpOmpM1 stalk region (residues 22-107), soluble construct (domain or fragment)” showed a stoichiometry N in experiment [2] of 3.
